Measured values reported in US7115722.
“And” between values parts separate entries of the source, which are not always exact repeats. Identical values can stand only once.

Key:
[1] = target: C-antigen (human); experiment: flow cytometry, SK-BR-3 cells, 5 mg/L
[2] = target: C-antigen (human); experiment: flow cytometry, SK-BR-3 cells, 2 mg/L IgG1
[3] = target: C-antigen (human); experiment: flow cytometry, SK-BR-3 cells, 3.9 mg/L IgG1
[4] = target: C-antigen (human); experiment: flow cytometry, SK-BR-3 cells, 3.3 mg/L IgG1
[5] = target: C-antigen (human); experiment: flow cytometry, SK-BR-3 cells, 4.0 mg/L IgG1
[6] = target: C-antigen (human); experiment: cell-fixed ELISA, SK-N-MC cells, 2.5 µg/mL
[7] = target: C-antigen (human); experiment: cell-fixed ELISA, MB-468 cells, 2.5 µg/mL
[8] = target: C-antigen (human); experiment: cell-fixed ELISA, SW-9000 cells, 2.5 µg/mL
[9] = target: C-antigen (human); experiment: flow cytometry, live CA-46 cells, 100 µg/mL
[10] = target: C-antigen (human); experiment: cell-fixed ELISA, CA-46 cells, 2.5 µg/mL
[11] = target: C-antigen (human); experiment: cell-fixed ELISA, SKMG-1 cells, 2.5 µg/mL
[12] = target: C-antigen (human); experiment: flow cytometry, live MB-468 cells, 200 µg/mL
[13] = target: C-antigen (human); experiment: cell-fixed ELISA, SK-LU-1 cells, 2.5 µg/mL
[14] = target: C-antigen (human); experiment: cell-fixed ELISA, LS17T cells, 2.5 µg/mL
[15] = target: C-antigen (human); experiment: cell-fixed ELISA, tumour cell lines, against BGA scFv
[16] = target: C-antigen (human); experiment: cell-fixed ELISA, PC-3 cells, 2.5 µg/mL
[17] = target: C-antigen (human); experiment: cell-fixed ELISA, SK-Co-1 cells, 2.5 µg/mL
[18] = target: C-antigen (human); experiment: cell-fixed ELISA, BT-20 cells, 2.5 µg/mL
[19] = target: C-antigen (human); experiment: cell-fixed ELISA, K-562 cells, 2.5 µg/mL
[20] = target: C-antigen (human); experiment: flow cytometry, live RAMOS cells, 100 µg/mL
[21] = target: C-antigen (human); experiment: radioligand binding to A-375 cells
[22] = target: C-antigen (human); experiment: flow cytometry, live WI-38 human diploid lung cells, 100 µg/mL
[23] = target: C-antigen (human); experiment: flow cytometry, live HT-29 cells, 200 µg/mL
[24] = target: C-antigen (human); experiment: cell-fixed ELISA, U-2 OS cells, 2.5 µg/mL
[25] = target: C-antigen (human); experiment: cell-fixed ELISA, DAUDI cells, 2.5 µg/mL
[26] = target: C-antigen (human); experiment: cell-fixed ELISA, NCI-H82 cells, 2.5 µg/mL
[27] = target: C-antigen (human); experiment: cell-fixed ELISA, T47D cells, 2.5 µg/mL
[28] = target: C-antigen (human); experiment: cell-fixed ELISA, SK-MEL-5 cells, 2.5 µg/mL
[29] = target: C-antigen (human); experiment: cell-fixed ELISA, D-54MG cells, 2.5 µg/mL
[30] = target: C-antigen (human); experiment: flow cytometry, live SKMG-1 cells, 100 µg/mL (second row)
[31] = target: C-antigen (human); experiment: cell-fixed ELISA, A-375 cells, 2.5 µg/mL
[32] = target: C-antigen (human); experiment: cell-fixed ELISA, SK-OV-3 cells, 2.5 µg/mL
[33] = target: C-antigen (human); experiment: cell-fixed ELISA, SAOS-2 cells, 2.5 µg/mL
[34] = target: C-antigen (human); experiment: radioligand binding to LS174T cells
[35] = target: C-antigen (human); experiment: cell-fixed ELISA, SK-MEL-28 cells, 2.5 µg/mL
[36] = target: C-antigen (human); experiment: cell-fixed ELISA, DU-145 cells, 2.5 µg/mL
[37] = target: C-antigen (human); experiment: flow cytometry, live SKMG-1 cells, 100 µg/mL
[38] = target: C-antigen (human); experiment: flow cytometry, live A-375 cells, 200 µg/mL
[39] = target: C-antigen (human); experiment: cell-fixed ELISA, T-24 cells, 2.5 µg/mL
[40] = target: C-antigen (human); experiment: flow cytometry, live RAMOS cells, 200 µg/mL
[41] = target: C-antigen (human); experiment: flow cytometry, live CCRF-CEM cells, 200 µg/mL
[42] = target: C-antigen (human); experiment: flow cytometry, live LS-174T cells, 200 µg/mL
[43] = target: C-antigen (human); experiment: cell-fixed ELISA, U-118MG cells, 2.5 µg/mL
[44] = target: C-antigen (human); experiment: cell-fixed ELISA, RAMOS cells, 2.5 µg/mL
[45] = target: C-antigen (human); experiment: cell-fixed ELISA, A-427 cells, 2.5 µg/mL
[46] = target: C-antigen (human); experiment: flow cytometry, live SK-BR-3 cells, 200 µg/mL
[47] = target: C-antigen (human); experiment: cell-fixed ELISA, CEM cells, 2.5 µg/mL
[48] = target: C-antigen (human); experiment: cell-fixed ELISA, HEP-2 cells, 2.5 µg/mL
[49] = target: C-antigen (human); experiment: cell-fixed ELISA, BT-474 cells, 2.5 µg/mL
[50] = target: C-antigen (human); experiment: radioligand binding to SKMG1 cells
[51] = target: C-antigen (human); experiment: flow cytometry, live CA-46 cells, 200 µg/mL
[52] = target: C-antigen (human); experiment: flow cytometry, live CCRF-CEM cells, 100 µg/mL
[53] = target: C-antigen (human); experiment: flow cytometry, live H9 cells, 100 µg/mL
[54] = target: C-antigen (human); experiment: flow cytometry, live H9 cells, 100 µg/mL; remark: listed apart in the source
[55] = target: C-antigen (human); experiment: cell-fixed ELISA, NCI-69 cells, 2.5 µg/mL
[56] = target: C-antigen (human); experiment: cell-fixed ELISA, HT-29 cells, 2.5 µg/mL
[57] = target: C-antigen (human); experiment: flow cytometry, live H9 cells, 200 µg/mL
[58] = target: C-antigen (human); experiment: cell-fixed ELISA, SK-BR-3 cells, 2.5 µg/mL

Control IgG1 (antibody)
Mean Fluorescence (MF) [1]: 169

B1: recombinantly produced H11 IgG1 (antibody)
VH: QAIVTLNTQAMHPTRWELSHMVDLQAAALVISSFITEHRGLTMEFGLSWVFLVALLRGIQCQVQLVESGGGVVQPGRSLRLSCAASGFPFRSFAMHWVRQALGKGLEWVAVISYDGSTKYYADSVKGRFTISRDTSKNTVYLKMNRLRTEDTAVFYLCERQSLLGDYDHYYGLDAWGKG
VL: LEMDMEFQAQLLFLLLLWLPDITGDIVLTQSPGTLSLSPGERATLSCRASQSVSSSYLAWYQQKPGQAPRLLIYGASTRATGMPDRFSGSGSGTDFTLTISRLEPEDFAVYYCQQYGSSPQTPQITFGGGTKVEIKRTVAAPSVFIFPPS
% Increase of MF above IgG1 control [2]: 2% and 9%
Mean Fluorescence (MF) [2]: 172 and 184
% Increase of MF above IgG1 control [3]: 18%
Mean Fluorescence (MF) [3]: 200
% Increase of MF above IgG1 control [4]: 14% and 10%
Mean Fluorescence (MF) [4]: 192 and 186
% Increase of MF above IgG1 control [5]: 33%
Mean Fluorescence (MF) [5]: 224

B2: H11-scFv (scFv)
scFv: DIVLTQSPGTLSLSPGERATLSCRASQSVSSSYLAWYQQKPGQAPRLLIYGASTRATGMPDRFSGSGSGTDFTLTISRLEPEDFAVYYCQQYGSSPQTPQITFGGGTKVEIKRTVAAPSVSGGGGSGGGGSGGGGSQVQLVESGGGVVQPGRSLRLSCAASGFPFRSFAMHWVRQALGKGLEWVAVISYDGSTKYYADSVKGRFTISRDTSKNTVYLKMNSLRTEDTAVYYCARDQSLLGDYDHYYGLDVWGKGTTVTVSSGSEQKLISEEDLNHHHHH
O.D. at 450 nm [6]: 0.5 O.D.
O.D. at 450 nm [7]: 0.65 O.D.
O.D. at 450 nm [8]: 0.41 O.D.
% FLUORESCENCE […] [9]: 66%
% Positive Cells [9]: 58%
Mean Fluorescence [9]: 221
O.D. at 450 nm [10]: 1.2 O.D.
O.D. at 450 nm [11]: 0.56 O.D.
% Positive Cells [12]: 11%
Mean Fluorescence [12]: 156
O.D. at 450 nm [13]: 0.45 O.D.
O.D. at 450 nm [14]: 0.57 O.D.
affinity relative to control scFv [15]: 8 to 50 fold
O.D. at 450 nm [16]: 0.36 O.D.
O.D. at 450 nm [17]: 0.56 O.D.
O.D. at 450 nm [18]: 0.54 O.D.
O.D. at 450 nm [19]: 0.65 O.D.
% FLUORESCENCE […] [20]: 87%
% Positive Cells [20]: 67%
Mean Fluorescence [20]: 316
Ka [21]: 3.6e+08 M⁻¹
binding sites/cell (binding sites/cell) [21]: 24000
% Positive Cells [22]: 15%
Mean Fluorescence [22]: 255
% Positive Cells [23]: 18%
Mean Fluorescence [23]: 179
O.D. at 450 nm [24]: 0.93 O.D.
O.D. at 450 nm [25]: 1.38 O.D.
O.D. at 450 nm [26]: 0.44 O.D.
O.D. at 450 nm [27]: 0.64 O.D.
O.D. at 450 nm [28]: 0.61 O.D.
O.D. at 450 nm [29]: 0.5 O.D.
% Positive Cells [30]: 27%
Mean Fluorescence [30]: 224
O.D. at 450 nm [31]: 0.97 O.D.
O.D. at 450 nm [32]: 0.77 O.D.
O.D. at 450 nm [33]: 0.88 O.D.
Ka [34]: 3e+08 M⁻¹
O.D. at 450 nm [35]: 0.71 O.D.
O.D. at 450 nm [36]: 0.42 O.D.
% Positive Cells [37]: 31%
Mean Fluorescence [37]: 206
% Positive Cells [38]: 80% and 76%
Mean Fluorescence [38]: 207 and 235
O.D. at 450 nm [39]: 0.97 O.D.
% FLUORESCENCE […] [40]: 143%
% Positive Cells [40]: 95%
Mean Fluorescence [40]: 423
% FLUORESCENCE […] [41]: 35%
% Positive Cells [41]: 34%
Mean Fluorescence [41]: 231
% Positive Cells [42]: 37%
Mean Fluorescence [42]: 233
O.D. at 450 nm [43]: 0.47 O.D.
O.D. at 450 nm [44]: 1.3 O.D.
O.D. at 450 nm [45]: 0.4 O.D.
% Positive Cells [46]: 36%
Mean Fluorescence [46]: 233
O.D. at 450 nm [47]: 1.4 O.D.
O.D. at 450 nm [48]: 0.08 O.D.
O.D. at 450 nm [49]: 0.6 O.D.
Ka [50]: 1.4e+09 M⁻¹
binding sites/cell (binding sites/cell) [50]: 5000
% FLUORESCENCE […] [51]: 108%
% Positive Cells [51]: 76%
Mean Fluorescence [51]: 262
% FLUORESCENCE […] [52]: 52%
% Positive Cells [52]: 38%
Mean Fluorescence [52]: 242
% Positive Cells [53]: 13%
Mean Fluorescence [53]: 145
% FLUORESCENCE […] [54]: 15%
% Positive Cells [54]: 9%
Mean Fluorescence [54]: 171
O.D. at 450 nm [55]: 0.44 O.D.
O.D. at 450 nm [56]: 0.53 O.D.
% FLUORESCENCE […] [57]: 20%
% Positive Cells [57]: 13%
Mean Fluorescence [57]: 186
O.D. at 450 nm [58]: 0.58 O.D.
